The values that follow are results of earlier work, collected in paper PMC12355045.

The target in the series is hemoglobin αβ dimer (Homo sapiens) (UniProt P69905).

As to “hemoglobin αβ dimer (from UniProt P69905)”, the Kd is 1000 nM.

In general, Kd refers to the equilibrium constant for the complex coming apart.
